Test results published in article PMC7606108 (Acta Pharmaceutica Sinica. B, 2020).

Target: the molecule itself
Assay: sucrose density gradient analysis

B1: Acetylcholinesterase, endogenous in macrophages (enzyme, UniProt P21836 32-614, looked up)
chain: EGREDPQLLVRVRGGQLRGIRLKAPGGPVSAFLGIPFAEPPVGSRRFMPPEPKRPWSGVLDATTFQNVCYQYVDTLYPGFEGTEMWNPNRELSEDCLYLNVWTPYPRPASPTPVLIWIYGGGFYSGAASLDVYDGRFLAQVEGAVLVSMNYRVGTFGFLALPGSREAPGNVGLLDQRLALQWVQENIAAFGGDPMSVTLFGESAGAASVGMHILSLPSRSLFHRAVLQSGTPNGPWATVSAGEARRRATLLARLVGCPPGGAGGNDTELIACLRTRPAQDLVDHEWHVLPQESIFRFSFVPVVDGDFLSDTPEALINTGDFQDLQVLVGVVKDEGSYFLVYGVPGFSKDNESLISRAQFLAGVRIGVPQASDLAAEAVVLHYTDWLHPEDPTHLRDAMSAVVGDHNVVCPVAQLAGRLAAQGARVYAYIFEHRASTLTWPLWMGVPHGYEIEFIFGLPLDPSLNYTTEERIFAQRLMKYWTNFARTGDPNDPRDSKSPQWPPYTTAAQQYVSLNLKPLEVRRGLRAQTCAFWNRFLPKLLSATDTLDEAERQWKAEFHRWSSYMVHWKNQFDHYSKQERCSDL
  stoichiometry N: 4
